Assays:
Experiment in all cases: ITC; 308 K; dockerin in the cell (stirred at 307 revolutions/min) titrated with 28 injections of 10 uL cohesin at 220 s intervals; proteins in 50 mM HEPES pH 7.5, 0.5 mM CaCl2, 0.5 mM TCEP; single-site model
Conditions in all cases: both partners purified
[1] = molecular target: T1, RfDoc1a Q83A, thioredoxin A fusion (R. flavefaciens FD-1)
T1 construct: numbers count on: the recombinant construct of the crystal structure (RfDoc1a numbering of PDB 5M2O); mutant of m3 (pHTP2 derivative); see the note of m3 on limits and numbering; source: E. coli, purified (IMAC, His GraviTrap)

[2] = molecular target: T2, RfDoc1a I39A, thioredoxin A fusion (R. flavefaciens FD-1)
T2 construct: numbers count on: the recombinant construct of the crystal structure (RfDoc1a numbering of PDB 5M2O); mutant of m3 (pHTP2 derivative); see the note of m3 on limits and numbering; source: E. coli, purified (IMAC, His GraviTrap)

[3] = molecular target: T3, RfDoc1a V43A, thioredoxin A fusion (R. flavefaciens FD-1)
T3 construct: numbers count on: the recombinant construct of the crystal structure (RfDoc1a numbering of PDB 5M2O); mutant of m3 (pHTP2 derivative); see the note of m3 on limits and numbering; source: E. coli, purified (IMAC, His GraviTrap)

[4] = molecular target: T4, RfDoc1a, group 1a dockerin, thioredoxin A fusion, wild type (R. flavefaciens FD-1)
T4 construct: numbers count on: the recombinant construct of the crystal structure (RfDoc1a numbering, residues 23-96 seen in PDB 5M2O); also called Doc1aWT; source: E. coli, purified (IMAC, His GraviTrap)

[5] = molecular target: T5, RfDoc1a S40A, thioredoxin A fusion (R. flavefaciens FD-1)
T5 construct: numbers count on: the recombinant construct of the crystal structure (RfDoc1a numbering of PDB 5M2O); mutant of m3 (pHTP2 derivative); see the note of m3 on limits and numbering; source: E. coli, purified (IMAC, His GraviTrap)

[6] = molecular target: T6, RfDoc1a Q47A, thioredoxin A fusion (R. flavefaciens FD-1)
T6 construct: numbers count on: the recombinant construct of the crystal structure (RfDoc1a numbering of PDB 5M2O); mutant of m3 (pHTP2 derivative); see the note of m3 on limits and numbering; source: E. coli, purified (IMAC, His GraviTrap)

[7] = molecular target: T7, RfDoc1a K54A, thioredoxin A fusion (R. flavefaciens FD-1)
T7 construct: numbers count on: the recombinant construct of the crystal structure (RfDoc1a numbering of PDB 5M2O); mutant of m3 (pHTP2 derivative); see the note of m3 on limits and numbering; source: E. coli, purified (IMAC, His GraviTrap)

[8] = molecular target: T8, RfDoc1b, group 1b dockerin, thioredoxin A fusion, wild type (R. flavefaciens FD-1)
T8 construct: group 1b dockerin (Doc1b), C-terminal component of protein WP_009982745, a family 9 glycoside hydrolase of R. flavefaciens FD-1, residues 783-862; numbers count on: the recombinant construct of the crystal structure (RfDoc1b numbering, residues 24-102 seen in PDB 5M2S); also called Doc1bWT; Doc1b WT; source: E. coli, purified (IMAC, His GraviTrap)

[9] = molecular target: T9, RfDoc1a V43A + Q47A, thioredoxin A fusion (R. flavefaciens FD-1)
T9 construct: numbers count on: the recombinant construct of the crystal structure (RfDoc1a numbering of PDB 5M2O); mutant of m3 (pHTP2 derivative); see the note of m3 on limits and numbering; source: E. coli, purified (IMAC, His GraviTrap)

[10] = molecular target: T10, RfDoc1a L87A, thioredoxin A fusion (R. flavefaciens FD-1)
T10 construct: numbers count on: the recombinant construct of the crystal structure (RfDoc1a numbering of PDB 5M2O); mutant of m3 (pHTP2 derivative); see the note of m3 on limits and numbering; source: E. coli, purified (IMAC, His GraviTrap)

B1: RfCohScaB3, ScaB cohesin 3 with C-terminal hexa-histidine tag, wild type (domain or fragment)
chain: MPVANADVVFDFQNYTAKAGDEVTVDVLVDSKNKPISAMDVKFKVDSPLTIEEIDKESLAFNTTVMTNMAILGANFKSLDDKGEPLVPKDGAAVFTLYVNVPANTPDGTYYVGFNGKNEVHKSNDGSQFTVASKNGAITVGTPNEEG
- Ka [1]: 1.54e+08 M⁻¹
- dH [1]: -39.5 ± 0.83 kcal/mol
- stoichiometry N [1]: 1
- Ka [2]: 3.86e+06 M⁻¹
- dH [2]: -57.26 ± 0.12 kcal/mol
- stoichiometry N [2]: 1
- Ka [3]: 1.91e+06 M⁻¹
- dH [3]: -52.08 ± 0.14 kcal/mol
- stoichiometry N [3]: 1
- Ka [4]: 1.18e+08 M⁻¹
- dH [4]: -50.68 ± 0.29 kcal/mol
- stoichiometry N [4]: 1
- Ka [5]: 1.09e+08 M⁻¹
- dH [5]: -46.6 ± 0.15 kcal/mol
- stoichiometry N [5]: 1
- Ka [6]: 1.71e+07 M⁻¹
- dH [6]: -48.27 ± 0.12 kcal/mol
- stoichiometry N [6]: 1
- Ka [7]: 1.96e+07 M⁻¹
- dH [7]: -59.73 ± 0.25 kcal/mol
- stoichiometry N [7]: 1
- Ka [8]: 1.03e+07 M⁻¹
- dH [8]: -64.94 ± 0.44 kcal/mol
- stoichiometry N [8]: 1
- Ka [9]: 436000 M⁻¹
- dH [9]: -48.79 ± 0.39 kcal/mol
- stoichiometry N [9]: 1
- Ka [10]: 2.81e+07 M⁻¹
- dH [10]: -59.84 ± 0.19 kcal/mol
- stoichiometry N [10]: 1
